Measurements: the nanobody polyreactivity screen of Harvey et al. (2022)

Assay: yeast display, Sf9 membrane polyspecificity reagent, FACS + sequencing; frameworks hold sequencing errors
Outline: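 After 36–48 hours of galactose induction, yeast (Saccharomyces cerevisiae BJ5465) displaying a synthetic nanobody library were stained at 4 °C for 1 hour with 10% biotinylated, detergent-solubilized Sf9 membrane reagent. Streptavidin microbeads enriched the stained cells before FACS sorting into low and high (top ~1%) gates on anti-HA and streptavidin fluorescence. Each clone's polyreactivity label reflects its gate of origin.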

Sequence | polyreactivity (PSR sort gate)
QVQLVESGGGIVQAGGSLRLSCAASGSTLDDYVMGWYRHAPGKDRQLVAAISSSGSGTYYADSVKGRFTISRDNAKNTVYLQMNSLKQEDTAVYYCAAAYSYSGYGYYTYDYWGLGTQVTVSS | low polyreactivity
QVQLVESGGGIVQAGGSLRLSCAASGSTLQYNAMGWYRQAPGKERELVAAITRISGSTYYADSVKGRFTISRDNAKNTVYLQMNSLKPEHTAVYYCAAVSYYYSGYDYWGQGTEVTVSS | high polyreactivity
QVQLVESGGGIVQAGGSLRLSCAASGTFVYYAMVMYRQPPGKERELVAGISDGSSTNYADSVKGRFTISRDNAKNTVYLQMNSLKPEDTAVYYCAKRYYSSGREHGYWGQGTQVTVSS | low polyreactivity
QVQLVESGGGIVQAGGSLRLSCAASGTTIEYNAMGWYRQAPGKERELVASSTNYADSVKGRFTISRDNAKNTVYFQMNILKPEDTAVYYCAREQGVNRNHDYWGQGTQVTVSS | low polyreactivity
QVQLVESGGGIVQAGGSLRLSCAASGYIFDHYAMGWYRQAPGKERELVAAISRSAGSTYYADSVKGRFTISRDNAKNTVYLQMKSLKPEDTAVYYCNAVVAVRSWRKYEYWGQGTQVTVSS | high polyreactivity
QVQLVESGGGIVQAGGSLRLSCASSGFTFNLYAMGWYRHAPGNERELVAAINWSGGTYYADSVKGRFTISRDNAKNNVYLQMKILKPEDTAVYYCNARYVYHSSFAGFDYWGQGTQVTVSS | low polyreactivity
QVQLVESGGGIVQAGGSLRLSCASSGSIFYWYAMGWYRQAPGKERELVAAISRSGGSTYYADSVKGRFTISRDNAKNTVYLQMNSLKPEDTAVYYCATELSYRHGYWGQGTQVTVSS | high polyreactivity
QVQLVESGGGIVQAGGSLRLSCDASGRIIGYYAMGWYRQAPGKERELVAAISRSGARTYYADSVKGRFTISRDNAKNTVYLQMNSLKPEDTAVYYCAAGPAPGHDSWGQGTQVTVSS | high polyreactivity
QVQLVESGGGIVQAGGSLRLSCSASGRNSGVNAMGSYRQAPGKERELVATISGSGGRTYYADSVKERFTISRDNAKNTVYLQMNSLKPEDTAVYYCNTLVQRGGYFSRGFDYWGQGTQVTVSS | low polyreactivity
QVQLVESGGGIVQAGGSLRLSFDASGFLFYSYAMGCYRQAPGKEREFVAAISWSGARTYYPDSVKGRFTISRDNAKNTVYLQMNSLKPEDTAVYYCIAVAFYPRSSRSWRLDYWGQGTQVTVSS | high polyreactivity
QVQLVESGGGIVQAGGSLRLSSAASGINFRYYAMGSSRPAPGKDRELVAVKSRDGTTYYADSVKGRFTISRDNAKNTVYLPMNSLKAADTAVYYCAKKAWVIYNRKFSSGYDYWGQGTQVNVSS | low polyreactivity
QVQLVESGGGIVQAGGSLRLSSAASGSIIFYYAMGWYRQPRGKEREFVAAITRSGVRTYYADSVKGRFTISRDNAKNTVYLQMNSLKPEDTAVYYCNDDYGFYRPVLMGFWGQGTQVTVSS | low polyreactivity
QVQLVESGGGIVQAGGSLRLTCAASGFIFWDYAMGWYRQAPGKERELVAAISDSGGDTYYADSVKGRFTISRDNAKNTVYLQMNSLNPEDTAVYYCASVVELWVFRGQQYDYWGQGTQVTVSS | low polyreactivity
QVQLVESGGGIVQAGGSLRLTCAASGRIFAWYAMGWYRQAPWKERELVASITWGGGRTYYADSVKGRFTISRDNAKNTVYLQMNCLKPEVTAVYYCAAYRYKEEAYLGVAQERDYWGQGTLVTVSS | low polyreactivity
QVQLVESGGGIVQARGSLRLSCAASGRIFAPYAMGWYRQAPGKERELVAAIRISGDSTYYADSVKGRFTISRDNAKNTVYLQMNSLKPHDTAVYYCAAEYYILHWFGYAGYPAYNYWGQGTQVTVSS | high polyreactivity
QVQLVESGGGIVQEGGSLRLSCAASGRTFNRYAMGWYRQAPGKERELVAAISWSGGRTYYADSVKGRFTISRDNAKNTVYLQMNSLIPEGTAVYYCAKEAYIRYDYWGQGTQVTVSS | low polyreactivity
QVQLVESGGGIVQSGGSLRLSCAASGSIFQPYAMGWYRQAPGQEREFVAAISRSGGITYYADSVKGRFTISRDNAKNTVYLQMYSLKPEDTAVYYCATGRQVVRSYSEGDYWGQGTQVTLSS | low polyreactivity
QVQLVESGGGKVQAGGSLRLICAASGSTFSSYAMGWYRQAPGKERELVAGISRGGSSTDYADSVKGRFTISRDNAKNTVYLQMNSLKPEDPAVYYCNAKVWWSFNGLEYDYWGQGTQVTVSS | low polyreactivity
QVQLVESGGGKVQAGGSLRLSCAASGFIFRYYAMGWYRQAPGKERELGAAISKRGGSTYYADSVKGRFTISRDNAKNTVYLQMNSLKADDTAVYYCARGYPIDPSFDTYDYWGQGTQVTVSS | high polyreactivity
QVQLVESGGGKVQAGGSLRLSCASSGFTYDSNAMGSYRQAPGKERELVAAISTGGSTYYADSVKGPFTISRDNANITVYLQMYSLKPEDTAVYYCARDPPYPDTWYGYWGQGTQVTVSS | low polyreactivity
QVQLVESGGGLAQAGCSLRLSCAASGRLFRGNAMGGYRQAPGKERELVARITGNDGDTYYADSVKGRFTISRDNAKNTVYLQMNSLKPEDTAVYYCATDTSSYRRRYYYWGQGTQVTVSS | low polyreactivity
QVQLVESGGGLAQAGGSLRLSCAASGRTFVTNAMGWYRQAPGKERELVAAISKSGGRTYYADSVKGRFTISRDNAKNTVYLQMNSLKPEDTAVYYCAADKRYLSYDYWGQGTQVTVSS | high polyreactivity

Sequence | polyreactivity (PSR sort gate)
QVQLVESGGGLAQAGGSLRLTCAASGSTFQIYAMGWYRPAPGKERELVAAITSSSSTNYADSVKGRFTISRDNAKNTVYLQMNRLKPEDTAVYYCAADVSWRSNWYDYWGLGTQVTVSS | low polyreactivity
QVQLVESGGGLDHAGGSLRLSCAASGFIFTPNAMGMYRQAPAKEREWVAAITSGGVTYYADSVKGRFTISRDNAKNTVYIQMNSLKPEGTAVYYCKKNHTGTVRDSIYGYWGQGNQVTVSS | high polyreactivity
QVQLVESGGGLDHAGGSLRLSCAASGITFKRYAMGWYRQAPGKERELVAAISDIGGRTYYADSVKGRFTISRDNAKNTVYLQMNSLKPEDTAVYYCAADYYSPVDWYYYWGQGTQVTVSS | high polyreactivity
QVQLVESGGGLDQAGGRLPLTCAASGLIFYDNMGWYRHAPGKERELVAAISSSGGSTSYADSVKGRFTISRDNAKNTVFLQMICLKPEDTAVYYCAADSYPAYLGFVGFDYWGQGTIVTVSS | low polyreactivity
QVQLVESGGGLDQAGGRLRLSCAASGITVGYNDMGRYRQARGKERELVAAINRGASTNYADSVKGRFTISRDNAKNTVYFQMNCLKPEDTAVYYCNADHRDTFIWVGLPHMDYWGQGTQVTVSS | low polyreactivity
QVQLVESGGGLDQAGGSHRLSCAASGFTFYPNAMGWYRQAPGKERELVASINSDGSTNYADSVKGRFTISRDNAKNTVYLPMNSLIPEDTAVYYCAAGYFWGRIKYYYWVQGTQVTVSS | high polyreactivity
QVQLVESGGGLDQAGGSLGLSCAASGFTFTGYTMGWYRQAPGKERELVATISGSGGNTYYADSVKGRFTISRDNAKNTVYLQMNSLKPEETAVYYCARRRSGPRVLYYYWGQGTQVTVSS | low polyreactivity
QVQLVESGGGLDQAGGSLPLSCAASGITSYVYAMRWYRQAPGKERELVASISWTGGNTYADSVKGRFTISRDNAKNTVYLPMNSLKPEDTAVYYCNAGRSWDYWYGYDYWGQGTQVTVSS | low polyreactivity
QVQLVESGGGLDQAGGSLRLICAASGSIFNGNAMGWYRQAPGKQRDLVAAITRRGGSTYYADSVKVRFTISRDNAKNTVYLQMNSLKPEDTAVYYCAAEDWLYKRPYKERIVQFYYWGQGTQVTVSS | low polyreactivity
QVQLVESGGGLDQAGGSLRLSCAASALIFSSYAMGWYRQAPGKERELVAAITGSGGRTYYADSVKGRFTISRDNAKNTVYLQMNSLKPEDTAVYYCAAKYPAPRYYTGYDYWGQGTQVTVSS | high polyreactivity
QVQLVESGGGLDQAGGSLRLSCAASGFIFFRYAMGWYRQAPRKEREMVAAISSSGGSTYYADSVKGRFTISRDNAKNTVYLQMNSLKPEDTAVYFCAAPRYPIFVGLGKDYWGQGTQVTVSS | high polyreactivity
QVQLVESGGGLDQAGGSLRLSCAASGFIFRYYTMGWYRQAPGKERELFATITSGGSTYYADSVKGRFTISRDNAKNTVYLQMNSLKPEDTAVYYCAKYHSLRRQYSKFRPTFDYWGQGTQVTVSS | high polyreactivity
QVQLVESGGGLDQAGGSLRLSCAASGFILGDYAMGWYRQAPGKERELVAAITSSGGSTYYADSVKGRFTISRDNAKNTVYFQMNSLKPEDTAVYYCNTVYVYGPEYDYWGQGTQVTVSS | high polyreactivity
QVQLVESGGGLDQAGGSLRLSCAASGFIYSWYAMGWYRQAPGKERELVAAISSSGVSTYYADSVKGRFTISRDNAKNTVYLQMNSLKPEDTAVYYCNAYGSVWDRGEYDYEYWGQGTQVTVSS | low polyreactivity
QVQLVESGGGLDQAGGSLRLSCAASGFTFDENAMGSYRQAPGINYSGASTYYADSVKGRFTISRDNAKNTVYLQMNSLKPEDTAVYYCAAEVVAQMNYWGQGTQVTVSW | low polyreactivity
QVQLVESGGGLDQAGGSLRLSCAASGFTFGYYAMGWYRQAPGKERELVATIDRGGGTSYADSVKGRFTISRDNAKNTVYLQMNSLKPEDTAVYYCNRAGYGAKARRYRSYWGQGTQVTVSS | high polyreactivity
QVQLVESGGGLDQAGGSLRLSCAASGFTFPLYAMGWYRQAPGKERELVAVISRSGGSTYYADSVKGRFTISRDNAKNTVYLQMNSLTPEDTAVYYCAARLVPRSPERGNYDYWGQGTQVTVSS | high polyreactivity
QVQLVESGGGLDQAGGSLRLSCAASGFTFPRYAMGWYRQAPGKERELVAAITLIGGSTYYADSVKGRFTISRDNAKNTVYLQMNSLKPEDTAVYYCAATDRKVGVYHSYYYWGQGTQVTVSS | low polyreactivity
QVQLVESGGGLDQAGGSLRLSCAASGFTFRRYAMGWYSQAPGKEREFVAAITTRGSNTYYADSVKGRFTISRDNAKNTVYLQMNSLKPEDTAVYYCAASYYPPGHYDYWGQGTQVTVSS | high polyreactivity
QVQLVESGGGLDQAGGSLRLSCAASGFTFTAYDMGWYRQAPGKVRELVAAINWSGSRTYYADSVKGRFTISRDNAKNTVYLQMNSLKPEDTAVYYCNTATSKSSYLHYDYWGQGTQVTVSS | high polyreactivity
QVQLVESGGGLDQAGGSLRLSCAASGFTFYSYVMGWYRQAPGKERELVAAITRGGSTYYADSVKGRFTISRDNAKNTVYLQMNSMKPDDTAVYYCAKRPSYGFNYWGQGTQVTVSS | low polyreactivity
